T1: PP2A-B55, Q7ZX64
T1 chain: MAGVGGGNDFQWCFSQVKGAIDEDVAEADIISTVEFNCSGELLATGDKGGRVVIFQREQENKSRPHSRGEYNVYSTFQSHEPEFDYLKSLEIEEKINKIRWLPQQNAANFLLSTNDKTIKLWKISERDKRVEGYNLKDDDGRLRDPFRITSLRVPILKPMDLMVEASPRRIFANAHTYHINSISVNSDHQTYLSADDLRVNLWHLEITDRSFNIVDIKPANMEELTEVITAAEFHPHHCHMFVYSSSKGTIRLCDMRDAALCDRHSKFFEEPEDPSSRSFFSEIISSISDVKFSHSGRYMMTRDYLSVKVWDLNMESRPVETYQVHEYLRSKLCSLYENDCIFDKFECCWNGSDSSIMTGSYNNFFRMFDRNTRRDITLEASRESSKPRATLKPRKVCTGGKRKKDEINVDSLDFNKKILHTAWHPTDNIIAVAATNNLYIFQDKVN

B1: 6His-Xenopus Arpp19 (isoform 1), wild type Y68A (protein)
chain: MSGENQETKAQEESSALEQKEIDDKVVSPEKSEEIKLKARYPNLGPKPGGSDFLRKRLQKGVSKKQKAFDSGDYNMAKAKMKNKQLPTAASDKTEVTGDHIPTPQDLPQRKPSLVASKLAG
B2: 6His-Xenopus Arpp19 (isoform 1), wild type Q66A (protein)
chain: B1 chain with Q66A, A68Y
B3: 6His-Xenopus Arpp19 (isoform 1), wild type K67A (protein)
chain: B1 chain with K67A, A68Y
B4: 6His-Xenopus Arpp19 (isoform 1), wild type F69A (protein)
chain: B1 chain with A68Y, F69A
B5: 6His-Xenopus Arpp19 (isoform 1), wild type D70A (protein)
chain: B1 chain with A68Y, D70A
B6: 6His-Xenopus Arpp19 (isoform 1), wild type Y74A (protein)
chain: B1 chain with A68Y, Y74A
B7: 6His-Xenopus Arpp19 (isoform 1), wild type S71T (protein)
chain: B1 chain with A68Y, S71T
B8: 6His-Xenopus Arpp19 (isoform 1), wild type G72A (protein)
chain: B1 chain with A68Y, G72A
B9: 6His-Xenopus Arpp19 (isoform 1), wild type D73A (protein)
chain: B1 chain with A68Y, D73A
B10: 6His-Xenopus Arpp19 (isoform 1), wild type G72A; S71A (protein)
chain: B1 chain with A68Y, S71A, G72A
B11: 6His-Xenopus Arpp19 (isoform 1), wild type G72A; S71T (protein)
chain: B1 chain with A68Y, S71T, G72A
B12: 6His-Xenopus Arpp19 (isoform 1), wild type T103A; P104A (protein)
chain: B1 chain with A68Y, T103A, P104A
B13: 6His-Xenopus Arpp19 (isoform 1), wild type T103A; P104A; D106A; L107A; P108A; Q109A (protein)
chain: B1 chain with A68Y, T103A, P104A, D106A, L107A, P108A, Q109A

Positions count from the first letter of the chain named. Numbers in names are those of the source.

For one assay, the target named is T1, PP2A-B55, Q7ZX64. The experiment in a line: His pull-down, western blot quantification. The note with it: chain shown with the change; 20 ng His-Arpp19; panel titled Phospho-Arpp19; parent: est. 0.98; read off a plot. (Immunoblotting shows a protein as a band on a membrane.)
With B1, the response was 0.16 AU. On to B2, for which the response turned out to be 0.86 AU. Take B3: the response was determined as 0.52 AU. Same read-out and setting: the value for B4 was 0.04 AU; that for B5 was 0.14 AU. The same measure, in the same setting: in the case of B6 it was 0.09 AU. Take B7: the response was 0.21 AU. On to B8, for which the response turned out to be 1.4 AU. For B9, the response was found to be 0.16 AU.

The assay is the same for the next values; noted with them: chain shown with the change; Arpp19 thio-phosphorylated at S67/S71 (ATPγS and recombinant Gwl kinase); parent: est. 1.0; read off a plot.
As for B1, the response came to 0.18 AU. Still for that read-out and setting: the value for B4 was 0.08 AU; that for B5 was 0.04 AU; that for B6 was 0.11 AU. As to B7, the response turned out to be 0.13 AU. On the same count and under the same terms, in the case of B9 it was 0.15 AU.

Staying with this assay, now noted: chain shown with the change;; parent: est. 0.83; read off a plot.
With B10, the response turned out to be 0.16 AU.

As for B11, the response amounted to 0.08 AU. The same measure, in the same setting: in the case of B8 it was 1.2 AU.

The same assay, now with this note: chain shown with the change;; parent: est. 0.90; read off a plot.
For B12, the response was 0.57 AU.

On to B13, for which the response is 0.36 AU.

(Values after paper PMC8196004.)
